From the DeepSol protein solubility set

Assay: soluble on expression in E. coli; label from the status in PepcDB or PDB records

Sequence | soluble on expression in E. coli
MEVKEVELELSSEATFLSKTSIGEITAGEKGLNPMELLLVSIGSCSGVDVYHILKKKRQEVKDIKIFLKGKRREKHPKIYEEIEIKYVAVGKVEEKALEQAVKLSTEKYCSVLAMVKPSTNLKISWEVKWEE | soluble
MEEMGSRSDTIMVASLNRETKEIKLVSVYRDTLLQLSDGTYNKANAAYAYGGEEEAVAMLNKNLDLNIEHYVSVDFSVLVHVIDALGGIDINVEEAENGMDIIPYLNNYVVEVIKNTGVDSAPFTQLGQQHLNGVQATAYARLRYGGGDDYKRTERQRQVLEQIAIKAQKAKLSTINKIIDKVFDNVKTNFTLTETIAYAKDVKSYIFGETQGFPYESTTADLDVGNSVVATDLASDVTKLHQFLFGENDYTPSSTVQSISEDISNSTYDTGESYDTEYDEYGYSQDYSGYDSGYTDNSYGTGGYQDSGYGDGSSGNGYTEDTGGDYVPPSDGGGTDSGSSDSNSQIPDTGTGDSGDTGGESLELEHHHHHH | soluble
MGNCNARPATFKPKNLPMEYPKKYAMYPTRRRMRASERRTYKRDCKNLLESVAGENPFEGDEETANNYTEAIFSISIKAKVLKTYMDLIESSINEECPVNGHIQLFCNEINNLSHLYEVFFRKSIVSVDTRVEERKEIARAAYRDIKNLTIIIYLNKERSKTLLQSVMMHTEFQTHQAEKLVEHYEATFSPILKEVLPDPNAPRIHRTPTRAQIIAFWEEVRREKESGTLGTPF | not soluble
MDCVMKGLNKITCCLLAALLMPCAGHAENEQYGANFNNADIRQFVEIVGQHLGKTILIDPSVQGTISVRSNDTFSQQEYYQFFLSILDLYGYSVITLDNGFLKVVRSANVKTSPGMIADSSRPGVGDELVTRIVPLENVPARDLAPLLRQMMDAGSVGNVVHYEPSNVLILTGRASTINKLIEVIKRVDVIGTEKQQIIHLEYASAEDLAEILNQLISESHGKSQMPALLSAKIVADKRTNSLIISGPEKARQRITSLLKSLDVEESEEGNTRVYYLKYAKATNLVEVLTGVSEKLKDEKGNARKPSSSGAMDNVAITADEQTNSLVITADQSVQEKLATVIARLDIRRAQVLVEAIIVEVQDGNGLNLGVQWANKNVGAQQFTNTGLPIFNAAQGVADYKKNGGITSANPAWDMFSAYNGMAAGFFNGDWGVLLTALASNNKNDILATPSIVTLDNKLASFNVGQDVPVLSGSQTTSGDNVFNTVERKTVGTKLKVTPQVNEGDAVLLEIEQEVSSVDSSSNSTLGPTFNTRTIQNAVLVKTGETVVLGGLLDDFSKEQVSKVPLLGDIPLVGQLFRYTSTERAKRNLMVFIRPTIIRDDDVYRSLSKEKYTRYRQEQQQRIDGKSKALVGSEDLPVLDENTFNSHAPAPSSRLEHHHHHH | not soluble
MGHHHHHHSHQKGRYTELVEEKYKLFGELYKTFTKGGLICCSIESPNQEEQEVETDWGLLKGHTYTMTDIRKIRLGERLVEVFSAEKVYMVRLRNPLGRQEWSGPWSEISEEWQQLTASDRKNLGLVMSDDGEFWMSLEDFCRNFHKLNVCRNVNNPIFGR | not soluble
MPVMSLIEQYEAAIYRGEIDSDPEQREILEHMQRLAEDLQKKSDSWFPWRKKHPIKGLYIYGPVGVGKTYLVDLFYQHIDEEKKARFHFHHFMQQIDAQLRRLQGKKNPLQYIAKEMAKSIRLLCFDEFLVHDVAYAMILAELLQALHHYGVVLVVSSNTRPDELYLNGVHRERFIPAIEIIKKNCEVLNLNQKRDYRLGRQPLLEAYLYPLNEQTQEAMEKQFALITREEDCKGFITVQNRDIPYIKYGTRSIWFAFDVICNFPRSQLDYLEIADRFDNVFLSDVYQLTESHTAQAIMFIHFIDVMYDRGIKLIISADVPAEELYVKGEMKETFKRTLSRLIEMQSVDYLSRHPRRLVKEMLLEHHHHHH | not soluble
MASKVYDPEQRKRMITGPQWWARCKQMNVLDSFINYYDSEKHAENAVIFLHGNATSSYLWRHVVPHIEPVARCIIPDLIGMGKSGKSGNGSYRLLDHYKYLTAWFELLNLPKKIIFVGHDWGAALAFHYAYEHQDRIKAIVHMESVVDVIESWDEWPDIEEDIALIKSEEGEKMVLENNFFVETVLPSKIMRKLEPEEFAAYLEPFKEKGEVRRPTLSWPREIPLVKGGKPDVVQIVRNYNAYLRASDDLPKLFIESDPGFFSNAIVEGAKKFPNTEFVKVKGLHFLQEDAPDEMGKYIKSFVERVLKNEQVDHHHHHH | soluble
MINHECINQPYGRILKFSRVQAKEMLTADELKENFAKNGQTLAQWARENGFKPRDVYLVIGGQRKGNYGKGHEIAKKLGLK | not soluble
ALLAVSMVACTSDEIALIEAMSKTSEISSYEGNSKIQLSFKGQGFSEKTQKVFDFLASYVDGFTFEANQKYSSNDEKTKATLAMDGNVDMQGLSVKYKYWTDMDFTTENPSLIQIVELPPAITQPMFTFANTGTKKYITIDYGSVLSAENNGGISLNPENLAKNSVELQEMLLDFVKTTAKDFDPGMVAVTKKGSAVTDKGEKVTEYELKLDDAAAKKLLHAFINDVILQEDTIEFGKKYMEAAINMYDFPEEEKQEALDEINKGLDEFASQLPAYRDSVTQVFESIKDVKFFGDKGLVAKYYINNDGFLVGGKSSIDIKIKMADFAALLGDNFDEKDKNGVLYLTIDAESSVYNINKEVSIELPEITEENSFDVLKGFMPILSGIGSAPGIGEEDYTYDIPALSDGINVVMNGKVVYFPDVKPENVNGRVLVPIRTISEEMGAEVTYNDATKQVLIAKDDTEILLTIGSQEAYVNGEKIMLDVPAMIIEGRTMVPLRFISESMNATVEWDGEAQIVYIFY | not soluble
MSLQYFKVRDEIRSMVSDSVDEIVDGVSKTTAEVINGRKSIAQYATSLIENNPEPDNVRTIISQPLIKNTFLLVGFGLEKDGSNINNDPSWNPGPTWDPRVRPWYKDAKNAGKLVITAPYADSASGEILVSVATPVKDSATGQFLGSIFYDVSLAELAELVNEVKLFDAGYVFIVSEDGTTIAHPKKEFNGKPMSEFLGESKINVDTHQVIINGKPYAVSFSDVEGEDWYVGVVIDEEIAYAALDELRRSEGHHHHHH | soluble
MQWVKQLNVVFCTMLFSFSSYANLSDFKVATWNLQGSSAVNESKWNINVRQLLSGEQGADILMVQEAGSLPSSAVRTSRVIQHGGTPIEEYTWNLGTRSRPNMVYIYYSRLDVGANRVNLAIVSRRQADEAFIVHSDSSVLQSRPAVGIRIGTDVFFTVHALATGGSDAVSLIRNIFTTFTSSPSSPERRGYSWMVVGDFNRAPVNLEAALRQEPAVSENTIIIAPTEPTHRSGNILDYAILHDAHLPRREQARERIGASLMLNQLRSQITSDHFPVSFVHDR | soluble
MGSDKIHHHHHHMSFLQEINLKLDVFEGPLDLLLHLIQKLEIDIYDIPITAVTEQYMSYIHAMQTLELEVAGEYLVMAATLMAIKSQMLLPKQELEIIDDEDFFEEEDPREALVAQLLEYRKFKYAATVLHEKEEERKLYYTKEPMDMDDYKEEDTTLPPNQINTIDLFLAFHAMLEKKKNRQPVETTVASDDVSIEEKISAISERMRQVQKGKAVSFDSFFDSYSKQEIVTTFMALLELMKTGAIYAEQENNYSEILLFNTETQQEDTTEVEETQ | not soluble
MSFRIGRRCFSKQSYDAIIIGGGHNGLTAAAYLTKAGKKVCVLERRHVVGGAAVTEEIVPGFRFSRASYLLSLLRPVVMQELNLKKFGLRYHIRNPNSFTPIRNTHESLLLGMDMAENQKEIAKFSQRDAGNYPKYEHFISEIVHSFEQLMDYEPLDLQKPIHKLLPHLYLLFKTVQPLGLRNAVDFYELMTAPISKIMNKWFESDVLKATLGTDGVIGLAASPMDPGTGYVLLHHVIGGLDEHKGAWGYVYGGMGAVSNAIAECAKSHGAEIYTEQDVQEVLLDGNVAKGVRLSNGKELHSKIVMSNATPHVTFNHLVKKESLPEEFHRNINQIDYTSPVTKINVAVKELPNFLAKPNQGSEPMPHHQTTIHMNCENMQVVHDAVMDYKNGRYSRRPVIEMTIPSSVDRTIVDSADGHVVLLFTQYTPFSPKDGEWTEEKKTEYAKHVFSEIDAYAPNFSSSVIGYDILTPPDIQNTFGITGGNIFHGSMSLDQLYVSRPISKWSNYSTPIESLYLCGSGAHPGGGVTGAPGRLSALHALKHF | not soluble
MGSDKIHHHHHHMAKQQFNKLIWLVDTIFRNAPVTFAEINRRWRAGDDNRSDIPLRTFHNHRQAIEEIFDINIECDKRNNTYYIADAEGMLGDKLKMWLLNSFSLNNVLQENVDMKNRIVFEEVPSGVQFMDLVIDAMRSGRVLAMEYQAYNWEHSKDVLLEPYFVKLFRHRWYLIGINREYKAFRSYSLDRIKRIALSEETFNFPRKFTPQDHFRDSFGIIRDENLLPQHTVLRTTISQAPYLRNLPLHSSQKEIAVTESYVDFELYISHTYDFIQELLSKGAAVEVLKPQSLRDKIKAEIQNMQTLYHL | not soluble
MVDIPAGEWQTDACPGWKEGRVCPPEKYLRQTLQIAPFQLSATAVTFAQWDACVDDGGCQEPDTGWAYQTRPNQPPCQAGSPCNYPYDEGWGRGDRPVIHVSWNDAQRYVDWLSQKTGQRYRLPTSEEWEYAAAAGSHARFAWGTKLGKNRGNCNGCGSRWDGKKTAPVASFAPNRFGLYDMVGNVSEWVSTCVPIRSKPGEDNQTCMAYLYRGGAWSYDAKSVGIDTYHSIDADFRANYIGFRVARLEHHHHHH | not soluble
GMTQHITRMRREIDEIPEAVQRLLDHGAQDVARVAAVLRLRDPSFVATVARGSSDHVCTYLSYAAELLLGLPVASLGPSVASVYDARLRLDRALCLAVSQSGKSPDIVAMTRNAGRDGALCVALTNDAASPLAGVSAHTIDIHAGPELSVAATKTFVTSAVAGLMLLADWAEDDGLRAALGNLPETLAAASRIDWPEMRVAIGARPSLFTLGRGTSLAVSNEAALKFKETCQLHAESYSSAEVLHGPVSIVEEGFPVLGFAAGDAAEAPLAEIADQIAAKGATVFATTGRVTRARVLEHVRSGHALTDPLSLIVSFYSMVEAFASERGIDPDAPRHLNKVTETV | soluble
MSIWQRVSFTHRFSQLPSAFYTLVEPQPLDNTRWVAWNGEFAQQFGLPAAQNDELLAVFSGQSEFEPFRPLAMKYAGHQFGVYNPDLGDGRGLLLAEIEHQNGTWFDIHLKGAGLTPYSRMGDGRAVLRSTIREYLCSEAMAGLGIPTTRALGMVVSDTPVYREKTEFGAMLIRMAETHVRFGHFEHLFYTNQLAEQKLLADKVIEWHFADCASAEKPYAAMFGEIVQKTADMIAYWQAYGFAHGVMNTDNMSILGQTFDYGPFGFLDDYEPGYICNHSDYQGRYAFEQQPRIALWNLSALAHALSPLVEREDLEQALSQFEGRLSQQFSRLMRSKLGLKTKIAEDGRLFESMFELLNQNHTDYTRFFRALSNLDKQPAQEVIDLFIDREAAQAWLDLYLARCELEVDEIGEPISAEQRSEQMRQTNPKYILRNYLAQLAIDKAEEGDFSEVHRLAEILRHPYDSQPEFEAYAKLPPEWGKKMEISCSSLEHHHHHH | not soluble
MSLTETAIENSVTVFHIESDEIKGRIIGREGRNIRALEAATGVEIVVDDTPEAIVLSAFDPVRREIARLALHQLVTDGRIHPARIEEVVAKVRKQVEEEIIETGKRTTIDLGIHGLHPELIRIIGKMKYRSSYGQNLLQHARETANLCAVMASELGLNPKKAKRAGLLHDIGKVPDEEPELPHALLGMKLAEKFKEKPDICNAIGAHHDEIEMTSLLAPIVQVCDAISGARPGARREIVEAYIKRLNDLEQLAMSYPGVTKTYAIQAGRELRVIVGADKIDDKQTENLSGEIAKKIQDEMTYPGQVKITVIRETRAVSFAKEGHHHHHH | soluble
MAWMEVRGKRFEILVRPELAFRYKEKGDVDLEDVLWTDTIYRDVRKGLKASPEEVKKAFGTSDPRRVAEKILKEGEIQLTEEQRRRLLEAKRRQIISYIARNAIDPTTGRPIPEARIEAALEEVRFPINLWRDAESQAVEAVRLIARVMPIRLARALLEVKIPPPHSGRAYQALMRMGEVKKADWLPDGSLKAELEIPAGAQVEVTSRIQALARGAAEVKVKKVAAAAAAALEHHHHHH | soluble
